Assay results taken from publication PMC8708588, “Easy Expression and Purification of Fluorescent N-Terminal BCL11B CCHC Zinc Finger Domain” (Molecules, 2021).

T1: CyPet-BCL11B_(42-94) (UniProt Q9C0K0 42-94)
T1 construct: B-cell lymphoma/leukemia 11B (BCL11B), N-terminal atypical CCHC zinc finger domain, amino acids 42-94; codon-optimized insert; Order on the chain: His6, CyPet, flexible linker (GGGGS)3, TEV-cleaving site, XhoI site, BCL11B 42-94, KpnI site; Fusion of 36 kDa; CyPet already has lysine at position 206; also called fluorescently tagged BCL11B_(42-94); CyPet-tagged N-terminal BCL11B CCHC zinc finger …
T1 sequence (looked up): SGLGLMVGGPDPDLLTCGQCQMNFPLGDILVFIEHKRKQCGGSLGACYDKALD


What was measured:
[1] = molecular target: the molecule itself; test: SEC; Superdex 200 Increase 3.2/300 on ÄKTAmicro; sizes from a calibration curve with protein standards
[2] = molecular target: T1, CyPet-BCL11B_(42-94); test: FRET or BRET; CyPet- and mEYFP-tagged domain mixed 1:1, total protein 200 µg/mL, 20 mM HEPES, 150 mM NaCl, 1 mM DTT, pH 7.4; incubated 48 h at 4 °C; excitation 400 nm, emission spectra 420-700 nm at room temperature; details: both partners purified

| binding result [2] | Binder | stoichiometry N [1] | binding result [1] |
| --- | --- | --- | --- |
| – | untagged BCL11B_(42-94) zinc finger domain (domain or fragment, B-cell lymphoma/leukemia 11B (BCL11B), N-terminal atypical CCHC zinc finger domain, amino acids 42-94; 5.5 kDa; source: E. coli NiCo21 (DE3); TEV digest of purified CyPet- or mEYFP-BCL11B_(42-94), flow-through of IMAC; not shown: His6, N-terminal, cleaved; CyPet or mEYFP, N-terminal, cleaved) GLESGLGLMVGGPDPDLLTCGQCQMNFPLGDILVFIEHKRKQCGGSLGACYDKALD | 4 | – |
| binds | mEYFP-BCL11B_(42-94) (domain or fragment, UniProt Q9C0K0 42-94, looked up, B-cell lymphoma/leukemia 11B (BCL11B), N-terminal atypical CCHC zinc finger domain, amino acids 42-94; codon-optimized insert; Fusion of 36 kDa; also called fluorescently tagged BCL11B_(42-94); source: E. coli NiCo21 (DE3), purified (IMAC, HisTrap excel); not shown: His6, N-terminal, kept; mEYFP (EYFP with A206K), N-terminal, kept) SGLGLMVGGPDPDLLTCGQCQMNFPLGDILVFIEHKRKQCGGSLGACYDKALD | – | binds |
